Assays:
[1] = target: T1, Zur (zinc uptake regulator) (Corynebacterium diphtheriae (strain of …, UniProt Q6NG23 1-142)); assay: EMSA; 5 uM ZnCl2; 100 nM Zur, 1 nM oligo duplex; 10 mM Tris pH 7.5, 55 mM KCl, 1 mM DTT, 10% glycerol, 0.05% NP-40, 100 ug/ml BSA, 0.03 ug/ml salmon sperm DNA, 5 uM ZnCl2 (or Zn/EDTA titration 0.25-250 uM); temperature not stated; conditions: protein: recombinant; tags: His-tag (pET30a); chain copies: 2; label: 5' biotin on strand 1; blunt
T1 sequence: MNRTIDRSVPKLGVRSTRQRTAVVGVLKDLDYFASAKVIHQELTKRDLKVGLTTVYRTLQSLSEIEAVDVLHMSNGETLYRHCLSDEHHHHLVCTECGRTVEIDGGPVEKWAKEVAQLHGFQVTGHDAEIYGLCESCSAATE

[2] = target: T1, Zur (zinc uptake regulator); assay: EMSA; 250 uM EDTA; 100 nM Zur, 1 nM oligo duplex; 10 mM Tris pH 7.5, 55 mM KCl, 1 mM DTT, 10% glycerol, 0.05% NP-40, 100 ug/ml BSA, 0.03 ug/ml salmon sperm DNA, 5 uM ZnCl2 (or Zn/EDTA titration 0.25-250 uM); temperature not stated; conditions: protein: recombinant; tags: His-tag (pET30a); chain copies: 2; label: 5' biotin on strand 1; blunt

| Binder | binding result [1] | binding result [2] |
| --- | --- | --- |
| cztA (dip1101) site 2 (dsDNA) DNA 1: GGGCATAAATGAAAATATGGGCTATGCTGCCCC DNA 2: GGGGCAGCATAGCCCATATTTTCATTTATGCCC | binds | – |
| cmrA (dip2325) site (dsDNA) DNA 1: CCCAATTATCGGTAATTATTTTCATTAAAAGGG DNA 2: CCCTTTTAATGAAAATAATTACCGATAATTGGG | – | binds |
| cztA (dip1101) site 1 (dsDNA) DNA 1: GGGTATCAGTACACATTATTTTCAATAAAGCCC DNA 2: GGGCTTTATTGAAAATAATGTGTACTGATACCC | binds | – |
| iutA (dip0169) DtxR binding site (dsDNA) DNA 1: CCCTGTTTTAGCTTAGCCCTAGCTAATTTGGGG DNA 2: CCCCAAATTAGCTAGGGCTAAGCTAAAACAGGG | no binding | – |
| adhA (dip2114) site (dsDNA) DNA 1: CCCTTCTAATGGTACCTATTTTCAATAGGTGGG DNA 2: CCCACCTATTGAAAATAGGTACCATTAGAAGGG | – | binds |

Source: publication PMC6711530, “Identification of zinc and Zur-regulated genes in Corynebacterium diphtheriae”
